This is an account of results in KR20230117039A (dated 2023).

Assay [1] has as its target T1, N-terminally biotinylated hNinj1 (2-56) peptide (human, UniProt Q92982 2-56, N-terminal biotin).
T1 construct: range 2-56; also called hNinj1 펩타이드
T1 sequence (peptide, looked up): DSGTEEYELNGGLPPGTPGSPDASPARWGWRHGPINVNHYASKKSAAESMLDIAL
The experiment in a line: scFv clone ELISA screen.

The target in assay [2] is T2, hNinj1 extracellular domain peptide with added C-terminal lysine, biotinylated (human).
T2 sequence (peptide, biotin on the added C-terminal lysine (K57)): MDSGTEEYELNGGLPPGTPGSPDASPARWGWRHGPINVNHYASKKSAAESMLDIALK
Kind of assay: clone ELISA screen. A general note: An ELISA detects its analyte on a solid surface through an enzyme-linked reagent.

Assay [3] concerns the target T3, NINJ1 peptide (analyte of the sandwich ELISA) (UniProt Q92982 1-56, limits assumed).
T3 construct: also called Ninj1 펩타이드; NINJ1 펩타이드
T3 sequence (peptide, looked up): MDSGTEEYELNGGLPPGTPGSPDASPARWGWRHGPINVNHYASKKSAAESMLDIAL
The experiment in a line: sandwich ELISA, NINJ1 titrated.

B1: E6, scFv clone of the VH3VL1 synthetic human antibody library (scFv)
chain: EVQLLESGGGLVQPGGSLRLSCAASGFTFSSYAIHWVRQAPGKGLEWVSAISGSGGSTYYADSVKGRFTISRNNSKNTLYLQVNSLRAEDTAVYYCARNPTYGGFDIWGQGTLVTVSSGGGGSGGGGSGGGGSQSVLTQPPSASGTPGQRVTISCSGSSSNIGSNYVYWYQQLPGTAPKLLIYRNNQRPSGVPDRFSGSKSGTSASLAISGLRSEDEADYYCGAWDDSLSSPVFGGGTKLTVLGQAGQHHHHHHGAYPYDVPDYAS
Consider B1, for which the “ELISA ratio hNinj1/control” value in assay [1] came out at 5.62.

B2: C11, scFv clone of the VH3VL1 synthetic human antibody library (scFv)
chain: EVQLLESGGGLVQPGGSLRLSCAASGFTFSSYGISWVRQAPGKGLEWVSAISGSGGSTYYADSVKGRFTISRDNSKNTLYLQMNSLRAEDTAVYYCARTPIDADAFDYWGQGTLVTVSSGGGGSGGGGSGGGGSQSVLTQPPSASGTPGQRVTISCTGNIGNIASNYVQWYQQLPGTAPKLLIYDTYNKHRGVPDRFSGSKSGTSASLAISGLRSEDEADYYCGAWDDSLSGPVFGGGTKLTVLGQAGQHHHHHHGAYPYDVPDYAS
With B2, in assay [1], the “ELISA ratio hNinj1/control” value was 6.18.

B3: C12, Fab clone of the rabbit immune library (Fab, V domains shown)
VH: QEQLKETGGGLVQPGGSLKLSCKASGIDFNTYTVSWVRQAPGKGLELIGYVDPVFDDTYYATWVNGRFTISSHNAQNTVYLQLNSLTAADTATYFCARLGAYDSSSGYPNFSLWGPGTLVTISS
VL: ELTQPPSLSASLDTTARLTCTLSTDYSVGEYPLVWLQQVPGRPPRYLLGYHTDDIKHQGPGVPSRFSGSKDHSTNTGVLTISGLQPEDEADYYCAVGVVFGGGTQLTVTG
Take B3: the ELISA ratio hNinj1/control in assay [2] worked out at 5.09.

B4: C12 anti-Ninj1 IgG antibody (antibody, V domains shown)
VH: B3 VH
VL: B3 VL
notes: Tested as IgG made in ExpiCHO; also called C12 IgG; 항 C12 Ninj1 항체
For orientation: EC50 means the concentration that produces a half-maximal response. Lower therefore signals an effect from little substance. Turning to B4, the EC50 in assay [3] is ~0.03 µg/mL.

B5: G2, Fab clone of the rabbit immune library (Example 1.3.3) (Fab, V domains shown)
VH: B3 VH
VL: B3 VL
On to B5, for which, in assay [2], the ELISA ratio hNinj1/control stood at 10.6.

B6: B3, scFv clone of the VH3VL1 synthetic human antibody library (scFv)
chain: EVQLLESGGGLVQPGGSLRLSCAASGFTFSDYDMSWVRQAPGKGLEWVSGISSDNGSTYYADSVKGRFTISRDNSKNTLYLQMNSLRAEDTAVYYCARAAITCNNEWCYYYDAMDVWGQGTLVTVSSGGGGSGGGGSGGGGSQSVLTQPPSASGTPGQRVTISCTGPSSNIGNNDVSWYQQLPGTAPKLLIYANSNRPSGVSDRFSGSKSGTSASLAISGLRSEDEADYYCGAWDDSLNGYVFGGGTKLTVLGQAGQHHHHHHGAYPYDVPDYAS
As for B6, the “ELISA ratio hNinj1/control” value in assay [1] is 5.12.
